Data: US9486519B2, “Use of FLT3 ligand for enhancing immune responses in RNA immunization” (BioNTech AG, priority 2008, dated 2016)

Key:
dendritic cells [1] = assay: Activation status (CD86, CD80, MHC-II, CD40) of lymph node dendritic cells after Flt3L; type: in vivo, C57BL/6 mice; conditions: 10 μg day 0 and 3; day 10
Description: In addition, C57BL/6 mice (n=3-7) were administered Flt3L twice (day 0 and 3, each time 10 μg). On day 10 the lymph nodes were removed and the activation status (CD86, CD80, MHC-II, CD40) of the dendritic cells was determined by flow cytometry.

[2] = test system: cell populations of the murine lymph node; assay: Effects of different Flt3L on the cellular composition in lymph nodes; type: in vivo, C57BL/6 mice; conditions: 0.4 mol i.p. day 0; lymph nodes day 10
Description: On day 10 the lymph nodes of the mice were removed and characterized by flow cytometry. Dendritic cells (DCs (marker: CD11c^+/NK1.1^−)), CD4^+ helper T cells (marker: CD3^+/CD4^+/CD8^−/NK1.1^−), CD8^+ T cells (marker: CD3^+/CD8^+/CD4^−/NK1.1^−), CD19^+ B cells (marker: CD19^+/CD3^−/NK1.1^−).
In this experiment Flt3 ligand (Flt3-IgG4) was compared with commercially available Flt3 preparations with respect to the effect on different cell populations of the murine lymph node. A product recombinantly expressed in bacteria (Peprotech Flt3L; Peprotech, Hamburg, Germany) and a product expressed in human HEK293 cells (Humanzyme Flt3L, Humanzyme; Chicago Ill., U.S.A.) were used as commercially available Flt3 preparations. Human IgG4 (Sigma-Aldrich, Deisenhofen, Germany) served as control.
On day 10 both inguinal lymph nodes of the mice were removed, the cell count determined by means of a Neubauer chamber and the cell populations were characterized by flow cytometry.

[3] = Half-time of Flt3L-IgG4 in serum, human IgG ELISA; type: in vivo, Balb/c mice
Description: At defined time points (prior to administration; 3 h, 24 h, 48 h, 3 d, 5 d, 7 d, 9 d, 14 d, 21 d) serum samples of the mice were preserved. These samples were used in an ELISA assay for quantifying human IgG. The half-time is 2.14 days (=51 hours).
At defined time points (prior to administration; 3 h, 24 h, 48 h, 3 d, 5 d, 7 d, 9 d, 14 d, 21 d) serum samples of the mice were preserved. These samples were used in an ELISA assay for quantifying human IgG. The half-time is 1,667 days (=40 hours).
Serum samples obtained from the mice were preserved at defined time points (prior to administration; 3 h, 24 h, 48 h, 3 d, 5 d, 7 d, 9 d, 14 d, 21d). Human IgG was quantified in these samples by means of an ELISA assay. Due to the fusion of human IgG4 to FIt3L in this construct the Flt3L concentration can be determined by quantifying human IgG in serum of mice.

dendritic cells [4] = assay: Dendritic cell subpopulations in spleen and lymph nodes by flow cytometry after i.p. Flt3-L; type: in vivo, C57Bl/6 mice; conditions: 10 μg i.p. d0, d3; day 10
Description: C57Bl/6 mice (n=3) were administered 10 μg Flt3L twice (d0, d3) intraperitoneally. On day 10 the inguinal lymph nodes were removed, the cells were stained with corresponding antibodies and the subpopulations of the dendritic cells were quantified by flow cytometry. The data shown represent the average cell count of the subpopulation *: p<0.05 and **: p<0.001 in the two-sided unpaired t-test.
To test the effects of application of human Flt3 ligand on the efficiency of RNA-based immunizations, the changes in the cellular composition of lymph nodes and spleen were first investigated in the mouse model. For this, various application schemes (2×, 3×, 5×10 μg) of recombinant Flt3-L were applied intraperitoneally and the cellularity was determined 10-12 days after the first injection. […] This increase could be shown for all relevant subpopulations of the dendritic cells in spleen and lymph nodes (FIG. 2).

[5] = test system: SIINFEKL epitope-specific CD8+ T cells; assay: Tetramer and intracellular IFNγ measurement after Flt3-L pretreatment and intranodal RNA immunization; type: in vivo, C57Bl/6 mice; conditions: dose above 2×10 μg; data not shown
B16 Ova tumors [6] = assay: Therapeutic vaccination against B16 Ova tumors, survival; type: in vivo, C57BL/6 mice
Description: To examine the synergy of combining Flt3L administration with RNA vaccination, a therapeutic tumor experiment was performed. To this end, 4 groups (n=10) of C57BL/6 mice were formed. All mice received on day 0 a s.c. injection of B16 Ova cells (2×10^5). Hereof a control group was only treated by IgG4 injection (10 μg; d3, d7, d14, d17). […] The Kaplan Meier plot of the survival rate of mice is shown.
To investigate the synergy of the combination of Flt3L administration together with RNA vaccination a therapeutic tumor experiment was performed. To this end four groups (n=10) of C57BL/6 mice were formed. All mice received on day 0 a s.c. injection of 2×10^5 B16 Ova tumor cells (Bellone et al., J. Immunol., 2000, 165:2651-2656). Thereof a control group was only treated by IgG4 injection (10 μg; d3, d7, d14, d17).

B16 Ova tumors [7] = assay: Therapeutic vaccination against B16 Ova tumors, tumor volume; type: in vivo, C57BL/6 mice
Description: Examination of tumor growth. To this end, four groups (n=10) of C57BL/6 mice were formed. All mice received on day 0 a s.c. injection of B16 Ova tumor cells (2×10^5). Hereof a control group was only treated by IgG4 injection (15 μg; d3, d7, d14, d18). […] The tumor volume was determined after tumor inoculation on a regular basis (d7, d10, d13, d16, d19, d22). The average tumor volume [mm^3] on the days following tumor inoculation [day] is shown.
To this end four groups (n=10) of C57BL/6 mice were formed. All mice received on day 0 a s.c. injection of 2×10^5 B16 Ova tumor cells (Bellone et al., J. Immunol., 2000, 165:2651-2656). Thereof a control group was only treated by injection of IgG4 (15 μg; d3, d7, d14, d18). […] The tumor volume was determined on the following days after tumor inoculation: d7, d10, d13, d16, d19 and d22 (d=day).

B1: Flt3L-IgG4: recombinant human Flt3 ligand prepared as a fusion protein with IgG4, SEQ ID NO: 6, expressed in HEK293 cells (protein)
chain: MTVLAPAWSPTTYLLLLLLLSSGLSGTQDCSFQHSPISSDFAVKIRELSDYLLQDYPVTVASNLQDEELCGGLWRLVLAQRWMERLKTVAGSKMQGLLERVNTEIHFVTKCAFQPPPSCLRFVQTNISRLLQETSEQLVALKPWITRQNFSRCLELQCQPDSSTLPPPWSPRPLEATAPTAPQPPRSPPCPSCPAPEFLGGPSVFLFPPKPKDTLMISRTPEVTCVVVDVSQEDPEVQFNWYVDGVEVHNAKTKPREEQFNSTYRVVSVLTVLHQDWLNGKEYKCKVSNKGLPSSIEKTISKAKGQPREPQVYTLPPSQEEMTKNQVSLTCLVKGFYPSDIAVEWESNGQPENNYKTTPPVLDSDGSFFLYSRLTVDKSRWQEGNVFSCSVMHEALHNHYTQKSLSLSPGK
modifications: Fusionsprotein
maturation of the dendritic cells in the lymph node (dendritic cells [1]): does not lead to maturation of the dendritic cells | expansion of dendritic cells [2]: strong similarity | expansion of the lymphocyte populations [2]: tended to be strongest | detectable in serum after injection ([3]; 20 μg and 50 μg i.p.): up to 5 days | half-life in serum ([3]; 20 μg i.p.): 51 h | half-time in serum ([3]; 20 μg i.p.): 2.14 days | half-life in serum ([3]; 50 μg i.p.): 40 h | stability compared to Flt3L without IgG4 fusion ([3]; from serum half-life): increased stability | dendritic cells in spleen and lymph nodes (dendritic cells [4]): increase in dendritic cells | immune response on increase of the Flt3-L dose [5]: not correlated with a further intensification of the immune response | portion of mice surviving in the long term (B16 Ova tumors [6]; Flt3L-IgG4 15 μg in combination with intranodal RNA vaccination 20 μg): about 80% | survival in the long term (B16 Ova tumors [6]; Flt3L-IgG4 15 μg without RNA vaccination): 10% | therapeutic effect on tumor growth (B16 Ova tumors [6]; Flt3L-IgG4 without RNA vaccination): minimal therapeutic effect on tumor growth | effect of the combination with intranodal vaccination of RNA (B16 Ova tumors [6]; survival): synergistic effect | tumor growth (B16 Ova tumors [7]; Flt3L administration combined with RNA vaccination): complete suspension of tumor growth | tumor growth (B16 Ova tumors [7]; only Flt3L administered, 15 μg): slight delay of tumor growth | effect of the combination with intranodal vaccination of RNA (B16 Ova tumors [7]; tumor volume): synergistic effect
